B1: 5-hydroxytryptamine receptor 4 (Mus musculus), P97288 (parent)
chain: MDKLDANVSSNEGFRSVEKVVLLTFLAVVILMAILGNLLVMVAVCRDRQLRKIKTNYFIVSLAFADLLVSVLVMPFGAIELVQDIWAYGEMFCLVRTSLDVLLTTASIFHLCCISLDRYYAICCQPLVYRNKMTPLRIALMLGGCWVLPMFISFLPIMQGWNNIGIVDVIEKRKFSHNSNSTWCVFMVNKPYAITCSVVAFYIPFLLMVLAYYRIYVTAKEHAQQIQMLQRAGATSESRPQPADQHSTHRMRTETKAAKTLCVIMGCFCFCWAPFFVTNIVDPFIDYTVPEQVWTAFLWLGYINSGLNPFLYAFLNKSFRRAFLIILCCDDERYKRPPILGQTVPCSTTTINGSTHVLRDTVECGGQWESRCHLTATSPLVAAQPSDT

How the values were obtained:
[1] = variants of: B1; details: with grk5_human GRK5, P34947
[2] = variants of: B1; details: with grk5_human GRK5, P34947; remark: listed apart in the source

Chain of grk5_human GRK5, P34947 (P34947 whole entry, looked up): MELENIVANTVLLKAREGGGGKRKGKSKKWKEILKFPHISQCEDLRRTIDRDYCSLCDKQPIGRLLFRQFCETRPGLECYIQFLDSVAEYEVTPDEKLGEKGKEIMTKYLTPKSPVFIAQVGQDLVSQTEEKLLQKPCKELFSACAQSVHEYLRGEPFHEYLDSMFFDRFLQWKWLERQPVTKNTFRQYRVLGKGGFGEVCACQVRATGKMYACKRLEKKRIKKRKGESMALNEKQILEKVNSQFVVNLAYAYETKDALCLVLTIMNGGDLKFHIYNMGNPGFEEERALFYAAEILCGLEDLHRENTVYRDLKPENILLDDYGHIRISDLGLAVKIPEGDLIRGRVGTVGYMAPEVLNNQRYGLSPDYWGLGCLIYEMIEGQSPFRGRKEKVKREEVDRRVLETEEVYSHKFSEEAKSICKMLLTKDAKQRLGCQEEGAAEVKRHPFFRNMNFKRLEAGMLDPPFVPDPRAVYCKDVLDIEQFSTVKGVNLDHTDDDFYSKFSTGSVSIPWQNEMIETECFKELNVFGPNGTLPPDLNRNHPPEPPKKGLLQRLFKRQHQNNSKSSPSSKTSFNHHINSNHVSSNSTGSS

| Variant | effect of a mutation on the interaction [1] | effect of a mutation on the interaction [2] |
| --- | --- | --- |
| MDKLDANVSSNEGFRSVEKVVLLTFLAVVILMAILGNLLVMVAVCRDRQLRKIKTNYFIVSLAFADLLVSVLVMPFGAIELVQDIWAYGEMFCLVRTSLDVLLTTASIFHLCCISLDRYYAICCQPLVYRNKMTPLRIALMLGGCWVLPMFISFLPIMQGWNNIGIVDVIEKRKFSHNSNSTWCVFMVNKPYAITCSVVAFYIPFLLMVLAYYRIYVTAKEHAQQIQMLQRAGATSESRPQPADQHSTHRMRTETKAAKTLCVIMGCFCFCWAPFFVTNIVDPFIDYTVPEQVWTAFLWLGYINSGLNPFLYAFLNKSFRRAFLIILCCDAERYKRPPILGQTVPCSTTTINGSTHVLRDTVECGGQWESRCHLTATSPLVAAQPSDT [D331A] | decreasing interaction | disrupting interaction |
| MDKLDANVSSNEGFRSVEKVVLLTFLAVVILMAILGNLLVMVAVCRDRQLRKIKTNYFIVSLAFADLLVSVLVMPFGAIELVQDIWAYGEMFCLVRTSLDVLLTTASIFHLCCISLDRYYAICCQPLVYRNKMTPLRIALMLGGCWVLPMFISFLPIMQGWNNIGIVDVIEKRKFSHNSNSTWCVFMVNKPYAITCSVVAFYIPFLLMVLAYYRIYVTAKEHAQQIQMLQRAGATSESRPQPADQHSTHRMRTETKAAKTLCVIMGCFCFCWAPFFVTNIVDPFIDYTVPEQVWTAFLWLGYINSGLNPFLYAFLNKSFRRAFLIILCCADERYKRPPILGQTVPCSTTTINGSTHVLRDTVECGGQWESRCHLTATSPLVAAQPSDT [D330A] | decreasing interaction | disrupting interaction |
| MDKLDANVSSNEGFRSVEKVVLLTFLAVVILMAILGNLLVMVAVCRDRQLRKIKTNYFIVSLAFADLLVSVLVMPFGAIELVQDIWAYGEMFCLVRTSLDVLLTTASIFHLCCISLDRYYAICCQPLVYRNKMTPLRIALMLGGCWVLPMFISFLPIMQGWNNIGIVDVIEKRKFSHNSNSTWCVFMVNKPYAITCSVVAFYIPFLLMVLAYYRIYVTAKEHAQQIQMLQRAGATSESRPQPADQHSTHRMRTETKAAKTLCVIMGCFCFCWAPFFVTNIVDPFIDYTVPEQVWTAFLWLGYINSGLNPFLYAFLNKSFRRAFLIILCCDDARYKRPPILGQTVPCSTTTINGSTHVLRDTVECGGQWESRCHLTATSPLVAAQPSDT [E332A] | decreasing interaction | disrupting interaction |

Reference: IntAct's records for PubMed 19661922
